Measurements from US20200262917A1 (Daiichi Sankyo, published 2020).
Changes are numbered by the printed parent chain.

T1: FLAG-D4: domain 4 and onwards (353-525) of human LAG-3 with N-terminal FLAG tag, on cells (human, UniProt P18627 353-525)
T1 construct: Expressed on HEK293T cells from pcDNA3.1; any leader before the FLAG tag is not described; also called construct containing only domain 4
T1 sequence: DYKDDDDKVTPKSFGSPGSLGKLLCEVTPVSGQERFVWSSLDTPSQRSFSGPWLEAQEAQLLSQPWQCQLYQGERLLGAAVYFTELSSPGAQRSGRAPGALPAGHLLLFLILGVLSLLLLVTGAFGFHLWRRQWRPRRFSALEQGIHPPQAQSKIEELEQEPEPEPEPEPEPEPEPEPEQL

T2: human LAG-3 (full length, expressed on cells) (human, UniProt P18627 23-525)
T2 construct: also called CD223; hLAG-3
T2 sequence: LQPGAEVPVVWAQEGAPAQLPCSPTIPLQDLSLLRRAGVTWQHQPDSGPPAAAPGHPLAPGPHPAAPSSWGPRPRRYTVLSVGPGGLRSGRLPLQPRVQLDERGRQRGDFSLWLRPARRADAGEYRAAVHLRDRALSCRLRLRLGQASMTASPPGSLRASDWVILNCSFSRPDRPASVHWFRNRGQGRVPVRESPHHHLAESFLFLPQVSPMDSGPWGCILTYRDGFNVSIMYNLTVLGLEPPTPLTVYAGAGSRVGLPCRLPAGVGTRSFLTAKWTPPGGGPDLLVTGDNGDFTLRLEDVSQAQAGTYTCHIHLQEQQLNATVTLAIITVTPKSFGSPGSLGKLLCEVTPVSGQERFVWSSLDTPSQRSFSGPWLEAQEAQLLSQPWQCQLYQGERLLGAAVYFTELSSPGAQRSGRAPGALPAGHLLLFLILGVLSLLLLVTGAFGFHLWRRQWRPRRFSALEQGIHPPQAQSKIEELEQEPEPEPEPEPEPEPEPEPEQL

T3: FLAG-D3D4: domain 3 and onwards (263-525) of human LAG-3 with N-terminal FLAG tag, on cells (human, UniProt P18627 263-525)
T3 construct: Expressed on HEK293T cells from pcDNA3.1; any leader before the FLAG tag is not described; also called construct containing domains 3 and 4
T3 sequence: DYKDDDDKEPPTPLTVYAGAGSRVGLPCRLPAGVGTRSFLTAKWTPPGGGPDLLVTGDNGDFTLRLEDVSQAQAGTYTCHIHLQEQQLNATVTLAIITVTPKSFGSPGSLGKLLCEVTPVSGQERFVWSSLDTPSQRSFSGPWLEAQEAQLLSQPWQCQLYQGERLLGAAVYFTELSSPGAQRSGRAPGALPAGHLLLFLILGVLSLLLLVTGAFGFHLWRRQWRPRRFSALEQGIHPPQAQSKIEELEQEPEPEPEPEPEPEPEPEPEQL

T4: LAG-3_D3D4-His: 3rd and 4th extracellular immunoglobulin-like domains (263-450) of human LAG-3 with … (UniProt P18627 263-450)
T4 chain: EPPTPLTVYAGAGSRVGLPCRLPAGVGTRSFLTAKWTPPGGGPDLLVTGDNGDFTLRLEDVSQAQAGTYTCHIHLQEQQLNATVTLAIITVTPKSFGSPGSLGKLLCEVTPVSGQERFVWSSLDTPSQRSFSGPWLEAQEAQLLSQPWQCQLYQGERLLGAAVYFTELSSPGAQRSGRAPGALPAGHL

B1: rat anti-human LAG-3 monoclonal antibody rLA212 (antibody, V domains shown)
VH: EVQLVESGGGLVQPGRSLKLSCAASGFTYRSYVMAWVRQAPTRGLEWVASISTGGGNTYYRDSVKGRFTISRDNAKNTLYLQMDSLRSEDTATYYCAEDMSNSGYGLFDYWGQGVMVTVSS
VL: NIVMTQSPKSMSISVGDRVTMNCKAGQNVDNNIAWYQKKPGQSPKLLIYYASNRNTGVPDRFTGGGYGTDFTLTINSVQAEDAAFYYCQRISNSPYTFGAGTELELKR
notes: Rat monoclonal antibody purified from hybridoma supernatant; the rat constant regions are not
B2: rat anti-human LAG-3 monoclonal antibody rLA225 (antibody, V domains shown)
VH: EVQLVESGGGLVQPGRSMKLSCVASGFTFSNYYMAWVRQAPTKGLEWVASISTGGGNTYYRDSVKGRFTISRDNAKSTLYLQMDSLRSEDTATYYCARPPYGYNYGWFTYWGQGTLVTVSS
VL: DIQMTQSPASLSASLGETVTIECRASEDIHNGLVWYQQKPGKSPQLLIYNANSMHTGVPSRFSGSGSGTQYSLKINSLQSEDVASYFCQQYYNYPRTFGGGTKLELKR
notes: as for B1
B3: rat anti-human LAG-3 monoclonal antibody rLA204 (antibody, V domains shown)
VH: EVELVESGGGLVQPGRSMKLSCAASGFTFRTYGMAWVRQAPTKGLEWVASISTGGGSTYYRDSVKGRFTISRDNAKSTLYLQMDSLRSEDTATYYCTTDLINYPGIGGFAFWGQGTLVTVSS
VL: NIVMTQSPKSMSISVGDRVTMNCKASQNVYNNIAWYQQKPGKSPKLLIYYASNRYTGVPDRFTGSGSGTDFTLTIHSVQAEDAAFYYCQRLYNSPPTFGGGTKLELKR
notes: the rat constant regions are not
B4: humanized anti-human LAG-3 antibody hLA212_H3/L2 (antibody, human IgG1, kappa, V domains shown)
VH: B1 VH with R16G, K19R, T42G, R43K, S88A, T93V, V115T, M116L
VL: DIQMTQSPSSLSASVGDRVTITCKAGQNVDNNIAWYQQKPGQSPKLLIYYASNRNTGVPSRFSGSGYGTDFTLTISSLQPEDFATYYCQRISNSPYTFGQGTKVEIKR
notes: Human IgG1/kappa; not in a low fucose form; also called humanized hLA212_H3/L2
B5: human chimeric anti-LAG-3 antibody cLA212 (antibody, human IgG1, V domains shown)
VH: B1 VH
VL: B1 VL
notes: Human IgG1/kappa chimera; The C-terminal ends 470 and 234 are inferred from the humanized chains, which differ from cLA212 by substitutions only; also called rLA212 human chimeric antibody
B6: humanized anti-human LAG-3 antibody hLA212_H2/L5 (antibody, human IgG1, kappa, V domains shown)
VH: B1 VH with R16G, K19R, T42G, R43K, A49G, D84N, S88A, T93V, V115T, M116L
VL: B1 VL with V3Q, K9S, N22T, T63S, N76S, A80P, A100Q, E103K
notes: Human IgG1/kappa; also called humanized hLA212_H2/L5
B7: humanized anti-human LAG-3 antibody hLA212_H2/L4 (antibody, human IgG1, kappa, V domains shown)
VH: B1 VH with R16G, K19R, T42G, R43K, A49G, D84N, S88A, T93V, V115T, M116L
VL: B4 VL with L11M, A13I, I21M, Q38K, Y67S, L78V, V104L, I106L
notes: Human IgG1/kappa; also called humanized hLA212_H2/L4
B8: humanized anti-human LAG-3 antibody hLA212_H2/L2 (antibody, human IgG1, kappa, V domains shown)
VH: B1 VH with R16G, K19R, T42G, R43K, A49G, D84N, S88A, T93V, V115T, M116L
VL: B4 VL
notes: Human IgG1/kappa; also called humanized hLA212_H2/L2
B9: humanized anti-human LAG-3 antibody hLA212_H2/L3 (antibody, human IgG1, kappa, V domains shown)
VH: B1 VH with R16G, K19R, T42G, R43K, A49G, D84N, S88A, T93V, V115T, M116L
VL: B4 VL with D1N, Q38K, S60D, S65G, T85F
notes: Human IgG1/kappa; also called humanized hLA212_H2/L3
B10: humanized anti-human LAG-3 antibody hLA212_H3/L5 (antibody, human IgG1, kappa, V domains shown)
VH: B1 VH with R16G, K19R, T42G, R43K, S88A, T93V, V115T, M116L
VL: B1 VL with V3Q, K9S, N22T, T63S, N76S, A80P, A100Q, E103K
notes: Human IgG1/kappa; also called humanized hLA212_H3/L5
B11: humanized anti-human LAG-3 antibody hLA212_H2/L1 (antibody, human IgG1, kappa, V domains shown)
VH: B1 VH with R16G, K19R, T42G, R43K, A49G, D84N, S88A, T93V, V115T, M116L
VL: B4 VL with S43A, Y67S
notes: Human IgG1/kappa; also called humanized hLA212_H2/L1
B12: humanized anti-human LAG-3 antibody hLA212_H3/L3 (antibody, human IgG1, kappa, V domains shown)
VH: B1 VH with R16G, K19R, T42G, R43K, S88A, T93V, V115T, M116L
VL: B4 VL with D1N, Q38K, S60D, S65G, T85F
notes: Human IgG1/kappa; also called humanized hLA212_H3/L3
B13: humanized anti-human LAG-3 antibody hLA212_H3/L4 (antibody, human IgG1, kappa, V domains shown)
VH: B1 VH with R16G, K19R, T42G, R43K, S88A, T93V, V115T, M116L
VL: B4 VL with L11M, A13I, I21M, Q38K, Y67S, L78V, V104L, I106L
notes: Human IgG1/kappa; also called humanized hLA212_H3/L4
B14: humanized anti-human LAG-3 antibody hLA212_H3/L1 (antibody, human IgG1, kappa, V domains shown)
VH: B1 VH with R16G, K19R, T42G, R43K, S88A, T93V, V115T, M116L
VL: B4 VL with S43A, Y67S
notes: Human IgG1/kappa; also called humanized hLA212_H3/L1
B15: rat anti-human LAG-3 monoclonal antibody rLA869 (antibody, V domains shown)
VH: EVQLVESGGGLVQPGRSLKLSCAASGFTYRTYVMAWVRQGPTQGLEWVASISTGGVSTYYRDSVKGRFTISRDNAKNTLYLQMDSLRSEDTATYYCAKDMLNGYNSQGLFDYWGQGVMVTVSS
VL: NIVMTQSPKSMSISVGDRVTMNCRASQNVDNTIAWYQQKPGQSPKLLIYFASDRYTGVPDRFTGGGYGTDFTLTINSVQAEDAAFYYCQRIYNSPLTFGSGTKLEIRR
notes: Rat monoclonal antibody
B16: rat anti-human LAG-3 monoclonal antibody rLA1264 (antibody, V domains shown)
VH: EVQLVESGGGLVQPGRSLKLSCAASGFTFSSYYMAWVRQAPTKGLEWVAYISNGGYSTYYRDSVKGRFTISRENAKSTLYLQMDSLRSEDTATYYCTITDHSGYRFTYWGQGTLVTVSS
VL: DIQMTQSPSLLSASVGDRVTLSCKASQSIYNSLAWYQQKLGEAPKLLIYDANSLQTGIPSRFSGSGSGTDFTLTISSLQPEDVATYFCQKYYSGNTFGAGTKLELKR
notes: Rat monoclonal antibody

Molecular target: T1, FLAG-D4: domain 4 and onwards (353-525) …
Experiment: flow cytometry on transfected HEK293T cells
Procedure: (§1) It was further confirmed by flow cytometry that the antibody produced by the hybridomas determined to be positive by the Cell-ELISA in Example 1)-3 binds to PHA (phytohemagglutinin) activated human T cells (PHA blasts), a more physiologically relevant cell type expressing LAG-3. To human PBMCs stimulated with 2 μg/mL of PHA (manufactured by Sigma-Aldrich) for three days, was added a hybridoma culture supernatant for suspension, followed by reaction at 4° C. for 30 minutes. After washing with a FACS buffer (PBS, 0.1% BSA, and 0.1% sodium azide), a secondary antibody such as an Anti-Rat IgG PE conjugate (manufactured by Jackson ImmunoResearch Laboratories, Inc.) diluted 200-fold with a FACS buffer comprising a LIVE/DEAD Fixable Dead Cell Stain Kit-near-IR fluorescent reactive dye (manufactured by Invitrogen Corp.) was added thereto for suspension, followed by standing at 4° C. for 30 minutes. After washing with a FACS buffer, the cells were resuspended in PBS containing 1 to 2% paraformaldehyde, followed by detection using a flow cytometer (Cantoll: manufactured by Becton, Dickinson and Company or FC500: manufactured by Beckman Coulter Inc.). The data was analyzed using FlowJo (manufactured by Tree Star Inc). After removal of the LIVE/DEAD Fixable Dead Cell Stain Kit-near-IR fluorescent reactive dye-positive dead cells by gating, a histogram of the fluorescence intensity of the living cells was plotted.
(§2) Each expression plasmid (cloned into pcDNA3.1) of either domain 3 and onwards (263-525) or domain 4 and onwards (353-525) of human LAG-3 with a FLAG tag sequence ([…]) added to the N terminus was introduced into HEK293T cells using Lipofectamine 2000 (manufactured by Life Technologies Corp.), and the cells were cultured for 1 day and then recovered, to investigate the binding activity of the antibodies by flow cytometry according to the method described in Example 1)-4. […]

binding result	Binder
no binding (tested: 10 µg/mL)	B1
no binding (tested: 10 µg/mL)	B2
no binding (tested: 10 µg/mL)	B3

Molecular target: T2, human LAG-3 (full length, expressed on …)
Experiment: flow cytometry on 293T-lacZ cells expressing human LAG-3

binding result	Binder
binds	B4
binds	B5
binds	B6
binds	B7
binds	B8
binds	B9
binds	B10
binds	B11
binds	B12
binds	B13
binds	B14

Molecular target: T2, human LAG-3 (full length, expressed on …)
Experiment: flow cytometry on PHA-activated human T cells (PHA blasts) expressing LAG-3

binding result	Binder
binds	B1
binds	B2
binds	B15
binds	B3
binds	B16

Molecular target: T3, FLAG-D3D4: domain 3 and onwards …
Experiment: same type of flow cytometry experiment using hybridoma culture supernatant

binding result	Binder
binds	B15
binds	B16

Molecular target: T4, LAG-3_D3D4-His: 3rd and 4th …
Experiment: SPR (Biacore T200)

Kd [pM]	Binder
62	B4
120	B6
96	B7
120	B8
150	B9
100	B10
110	B11
100	B12
76	B13
92	B14

Molecular target: T3, FLAG-D3D4: domain 3 and onwards …
Experiment: flow cytometry on transfected HEK293T cells, antibody at 10 µg/mL
Procedure: as §1, §2

binding result	Binder
binds	B1
binds	B2
binds	B3
